# In PMC4383044, “Molecular insights into RNA and DNA helicase evolution from the determinants of specificity for a DEAD-box RNA helicase” (eLife, 2014):
# T1: Mss116 helicase core (D1D2, residues 88–597) (Saccharomyces cerevisiae, UniProt P15424)
# T1 construct: helicase core D1D2 (residues 88-597; D1, D2 and CTE), lacking unstructured N- (37-87) and C-terminal (598-664) extensions; expressed as N-terminal MalE (MBP) fusion in E. coli Rosetta 2; D1D2 used for crystals and kinetic unwinding
# T1 sequence (P15424 88-597): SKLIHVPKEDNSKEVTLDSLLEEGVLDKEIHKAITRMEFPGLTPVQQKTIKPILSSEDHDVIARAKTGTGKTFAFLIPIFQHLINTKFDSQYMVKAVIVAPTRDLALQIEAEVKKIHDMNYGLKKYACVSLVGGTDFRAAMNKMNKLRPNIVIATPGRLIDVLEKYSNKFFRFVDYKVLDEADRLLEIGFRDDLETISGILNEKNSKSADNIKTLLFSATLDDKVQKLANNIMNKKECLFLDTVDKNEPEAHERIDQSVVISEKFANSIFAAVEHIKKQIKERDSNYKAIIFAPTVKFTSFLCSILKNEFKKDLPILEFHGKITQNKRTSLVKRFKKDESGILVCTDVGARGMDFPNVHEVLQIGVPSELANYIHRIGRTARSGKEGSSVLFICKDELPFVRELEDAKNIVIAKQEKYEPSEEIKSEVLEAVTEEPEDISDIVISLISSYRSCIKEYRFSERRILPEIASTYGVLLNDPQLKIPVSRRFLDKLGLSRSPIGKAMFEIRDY
# T2: Mss116 D2, MBP-tagged (Saccharomyces cerevisiae? (paper: yeast), UniProt P15424 342-597)
# T2 sequence: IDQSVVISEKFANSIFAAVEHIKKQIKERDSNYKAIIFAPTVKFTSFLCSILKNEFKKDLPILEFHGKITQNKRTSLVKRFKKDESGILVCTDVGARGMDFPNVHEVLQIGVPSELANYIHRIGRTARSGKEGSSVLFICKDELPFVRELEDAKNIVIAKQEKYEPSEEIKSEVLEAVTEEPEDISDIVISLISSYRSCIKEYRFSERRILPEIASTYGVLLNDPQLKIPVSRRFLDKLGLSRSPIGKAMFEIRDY
# T3: Mss116 helicase core D1D2 (Saccharomyces cerevisiae? (paper: yeast), UniProt P15424 88-597)
# T3 sequence: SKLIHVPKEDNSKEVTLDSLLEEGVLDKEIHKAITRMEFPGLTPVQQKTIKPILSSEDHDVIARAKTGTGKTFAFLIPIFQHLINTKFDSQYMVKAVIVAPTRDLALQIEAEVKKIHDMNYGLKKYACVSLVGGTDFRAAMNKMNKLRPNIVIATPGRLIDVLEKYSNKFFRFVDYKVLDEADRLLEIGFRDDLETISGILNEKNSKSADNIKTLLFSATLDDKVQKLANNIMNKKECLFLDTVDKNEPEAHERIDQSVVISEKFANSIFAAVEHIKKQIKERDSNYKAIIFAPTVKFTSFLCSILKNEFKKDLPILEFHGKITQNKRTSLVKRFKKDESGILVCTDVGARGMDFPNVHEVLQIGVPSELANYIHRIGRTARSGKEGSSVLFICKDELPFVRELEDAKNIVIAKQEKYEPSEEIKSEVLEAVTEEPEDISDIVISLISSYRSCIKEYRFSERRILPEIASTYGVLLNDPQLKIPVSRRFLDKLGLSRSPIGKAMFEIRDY
# T4: Mss116 helicase core D1D2, MBP-tagged (Saccharomyces cerevisiae? (paper: yeast), UniProt P15424 88-597)
# T4 sequence: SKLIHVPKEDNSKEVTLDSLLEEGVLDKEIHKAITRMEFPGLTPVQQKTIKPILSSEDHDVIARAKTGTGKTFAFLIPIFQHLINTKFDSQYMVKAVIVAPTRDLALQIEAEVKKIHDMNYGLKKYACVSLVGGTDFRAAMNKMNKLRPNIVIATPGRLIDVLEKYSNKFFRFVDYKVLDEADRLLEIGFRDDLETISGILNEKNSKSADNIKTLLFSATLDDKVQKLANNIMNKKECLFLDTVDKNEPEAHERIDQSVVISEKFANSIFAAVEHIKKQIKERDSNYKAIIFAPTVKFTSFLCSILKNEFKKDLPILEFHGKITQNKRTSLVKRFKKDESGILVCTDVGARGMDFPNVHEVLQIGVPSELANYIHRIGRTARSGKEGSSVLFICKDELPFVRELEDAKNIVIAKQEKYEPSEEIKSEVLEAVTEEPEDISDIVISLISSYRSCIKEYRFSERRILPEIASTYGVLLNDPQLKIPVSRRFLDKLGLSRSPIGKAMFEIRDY
# How the values were obtained:
# [1] = target: T1, Mss116 helicase core (D1D2, residues 88–597); assay: kinetic gel-based dsRNA unwinding; format: biochemical; conditions: 5 mM ATP-Mg, 2 uM D1D2, 125 nM labelled 12-bp dsRNA, pH 7.5, 22 °C
# Mss116 D2, MBP-tagged [2] = target: T2, Mss116 D2, MBP-tagged; assay: competition; unlabeled dsRNA displacing 250 nM 5' FAM-B-DNA from 500 nM MBP-D2; 20 mM Tris-HCl pH 7.5, 100 mM KCl, 10% glycerol, 1 mM DTT, 5 mM MgCl2, 0.1 mg/ml BSA, 22 C, >=1 h; EMSA gels 6% at 4 C in 0.5x TBE; SEC with 200 mM KCl, no BSA; conditions: protein: recombinant; tags: N-terminal MBP (MalE); self-complementary, 2 strand copies, 12 bp
# Mss116 D2, MBP-tagged [3] = target: T2, Mss116 D2, MBP-tagged; assay: competition; unlabeled B-DNA displacing 250 nM 5' FAM-dsRNA from 500 nM MBP-D2; 20 mM Tris-HCl pH 7.5, 100 mM KCl, 10% glycerol, 1 mM DTT, 5 mM MgCl2, 0.1 mg/ml BSA, 22 C, >=1 h; EMSA gels 6% at 4 C in 0.5x TBE; SEC with 200 mM KCl, no BSA; conditions: protein: recombinant; tags: N-terminal MBP (MalE); self-complementary, 2 strand copies, 12 bp
# [4] = target: T3, Mss116 helicase core D1D2; assay: SEC; 5 mM ADP-BeFx; A260/A280 0.6, open; no complex maintained on column; 20 mM Tris-HCl pH 7.5, 100 mM KCl, 10% glycerol, 1 mM DTT, 5 mM MgCl2, 0.1 mg/ml BSA, 22 C, >=1 h; EMSA gels 6% at 4 C in 0.5x TBE; SEC with 200 mM KCl, no BSA; conditions: protein: recombinant; tags: expressed as MalE fusion; self-complementary, 2 strand copies, 12 bp
# Mss116 D2, MBP-tagged [5] = target: T2, Mss116 D2, MBP-tagged; assay: EMSA; no nucleotide; Hill 1.5; 20 mM Tris-HCl pH 7.5, 100 mM KCl, 10% glycerol, 1 mM DTT, 5 mM MgCl2, 0.1 mg/ml BSA, 22 C, >=1 h; EMSA gels 6% at 4 C in 0.5x TBE; SEC with 200 mM KCl, no BSA; conditions: protein: recombinant; tags: N-terminal MBP (MalE); label: 5' FAM; self-complementary, 2 strand copies, 12 bp
# [6] = target: T4, Mss116 helicase core D1D2, MBP-tagged; assay: gel-based fluorescence closed-state/unwinding assay; ADP-BeFx titrated (value is nucleotide concentration), 2 uM protein; 20 mM Tris-HCl pH 7.5, 100 mM KCl, 10% glycerol, 1 mM DTT, 5 mM MgCl2, 0.1 mg/ml BSA, 22 C, >=1 h; EMSA gels 6% at 4 C in 0.5x TBE; SEC with 200 mM KCl, no BSA; conditions: protein: recombinant; tags: N-terminal MBP (MalE); label: 5' FAM, 3' Iowa Black FQ; self-complementary, 2 strand copies, 12 bp
# Mss116 D2, MBP-tagged [7] = target: T2, Mss116 D2, MBP-tagged; assay: EMSA; no nucleotide; Hill 1.6; 20 mM Tris-HCl pH 7.5, 100 mM KCl, 10% glycerol, 1 mM DTT, 5 mM MgCl2, 0.1 mg/ml BSA, 22 C, >=1 h; EMSA gels 6% at 4 C in 0.5x TBE; SEC with 200 mM KCl, no BSA; conditions: protein: recombinant; tags: N-terminal MBP (MalE); label: 5' FAM; self-complementary, 2 strand copies, 12 bp
# Mss116 D2, MBP-tagged [8] = target: T2, Mss116 D2, MBP-tagged; assay: EMSA; no nucleotide; Hill 2.2; 20 mM Tris-HCl pH 7.5, 100 mM KCl, 10% glycerol, 1 mM DTT, 5 mM MgCl2, 0.1 mg/ml BSA, 22 C, >=1 h; EMSA gels 6% at 4 C in 0.5x TBE; SEC with 200 mM KCl, no BSA; conditions: protein: recombinant; tags: N-terminal MBP (MalE); label: 5' FAM; self-complementary, 2 strand copies, 12 bp
molecule,measurement,setting,value
Nc1ncnc2c1ncn2[C@@H]1O[C@H](COP(=O)(O)OP(=O)(O)OP(=O)(O)O)[C@@H](O)[C@H]1O [ATP],kinetic gel-based dsRNA unwinding,[1],"only ATP, and not other NTPs, catalyzes the unwinding of the dsRNA"
"12-bp dsRNA, unlabeled (dsRNA) RNA 1: CCCCCGCGGGGG RNA 2: CCCCCGCGGGGG",Ki,"Mss116 D2, MBP-tagged [2]",0.86 ± 0.04 µM
"12-bp B-DNA duplex, unlabeled (dsDNA) DNA 1: GCGCGCGCGCGC DNA 2: GCGCGCGCGCGC",Ki,"Mss116 D2, MBP-tagged [3]",1.7 ± 0.2 µM
same,binding result,[4],no binding
"12-bp A-DNA duplex, 5' FAM (dsDNA) DNA 1: CCCCCGCGGGGG DNA 2: CCCCCGCGGGGG",apparent K (half saturation),"Mss116 D2, MBP-tagged [5]",410 nM
"12-bp dsRNA, FAM/IBFQ (dsRNA) RNA 1: CCCCCGCGGGGG RNA 2: CCCCCGCGGGGG",apparent K (half saturation),[6],140 µM
"12-bp B-DNA duplex, 5' FAM (dsDNA) DNA 1: GCGCGCGCGCGC DNA 2: GCGCGCGCGCGC",apparent K (half saturation),"Mss116 D2, MBP-tagged [7]",510 nM
"12-bp dsRNA, 5' FAM (dsRNA) RNA 1: CCCCCGCGGGGG RNA 2: CCCCCGCGGGGG",apparent K (half saturation),"Mss116 D2, MBP-tagged [8]",400 nM
